Assay results from the supplement of paper PMC10567573.

B1: RSPH3 (parent)
chain: FIPAKTGKDVATQILEGELFDFDL
B2: SAT2 (parent)
chain: LTEAEGWHFFCFQGEATRKLAGK

Variants of: B1
Assay: protein stability index of a GFP-peptide fusion (GPS, HEK-293T) (PSI 1-6); higher = more stable
Conditions: c terminus: a fixed tail appended
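Further: lentivirally expressed fusions sorted by FACS into six bins by GFP to DsRed ratio, PSI derived from sequencing read proportions per bin multiplied by bin number.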

Variant | protein stability index
K5E | 2.95
K5C | 1.87
K5Y | 1.88
K5L | 1.85
K5Q | 2.21
K5G | 1.97
K5R | 1.75
K5W | 1.57
K5I | 1.63
K5N | 2.71
K5H | 1.92
K5F | 2.46
K5T | 2.15
K5V | 1.72
K5P | 2.22
K5A | 1.77
K5D | 2.66
K5M | 1.87
K5S | 2.01
A4D | 2.25
A4Q | 2.05
A4G | 2.48
A4V | 2.28
A4H | 1.62
A4L | 2.09

Variant | protein stability index
A4C | 2.08
A4S | 1.64
A4W | 1.6
A4F | 2.33
A4P | 1.55
A4K | 1.9
A4M | 2.74
A4N | 2.35
A4E | 2.51
A4T | 1.96
A4I | 1.62
A4Y | 1.54
F1C | 3.55
F1Q | 4.69
F1W | 2.66
F1L | 3.56
F1G | 4.84
F1D | 4.77
F1N | 4.98
F1I | 3.89
F1R | 4.15
F1K | 4.24
F1A | 4.14
F1Y | 1.9
F1T | 4.34

Variant | protein stability index
F1M | 3.93
F1S | 4.66
F1V | 3.54
F1P | 4.33
F1H | 4.32
F1E | 5.01
A11L | 1.27
A11D | 2.48
A11G | 2.04
A11H | 1.8
A11V | 1.94
A11P | 1.78
A11Y | 4.25
A11T | 1.91
A11I | 2
A11K | 2.24
A11N | 1.68
A11C | 2
A11R | 2.2
A11M | 1.53
A11F | 2.13
A11E | 2.35
A11Q | 1.73
A11S | 1.87
T6C | 1.29

Variant | protein stability index
T6Q | 1.64
T6F | 2.08
T6D | 2.46
T6A | 2
T6Y | 1.64
T6H | 1.82
T6M | 1.59
T6L | 1.87
T6R | 1.71
T6N | 1.91
T6S | 1.71
T6P | 1.42
T6G | 2.12
T6K | 2.22
T6I | 2.53
T6V | 1.6
T6E | 2.43
T6W | 1.9
Q13Y | 2.09
Q13V | 2.55
Q13I | 2.43
Q13W | 1.95
Q13G | 2.65
Q13L | 2.38
Q13R | 1.58

Variant | protein stability index
Q13N | 1.97
Q13E | 1.65
Q13M | 1.67
Q13F | 2.07
Q13K | 1.78
Q13P | 1.95
Q13S | 2.32
Q13D | 2.08
Q13C | 2.9
Q13A | 1.43
Q13H | 2.62
Q13T | 1.99
T12W | 3.27
T12L | 2.18
T12D | 1.56
T12H | 1.43
T12K | 1.49
T12I | 1.85
T12C | 2.02
T12F | 2.73
T12E | 2.04
T12M | 2.18
T12G | 1.7
T12Q | 1.92
T12P | 1.8

Variant | protein stability index
T12Y | 1.92
T12R | 2.55
T12A | 2.18
T12N | 1.89
T12S | 1.82
T12V | 2.98
L15P | 2.02
L15G | 1.89
L15F | 2.18
L15A | 1.74
L15I | 1.87
L15K | 2.07
L15M | 2.03
L15H | 2.12
L15E | 2.79
L15C | 1.85
L15D | 2.58
L15N | 2
D9T | 1.77
D9L | 2.77
D9F | 2.59
D9N | 3.27
D9P | 1.78
D9Q | 1.68
D9W | 3.31

Variant | protein stability index
D9V | 2.29
D9Y | 2.06
D9E | 1.81
D9S | 1.82
D9C | 2.43
D9H | 2.03
D9G | 2.23
D9K | 1.65
D9A | 1.25
D9R | 2.06
D9I | 1.42
G7I | 1.96
G7M | 1.43
G7H | 2.08
G7Y | 1.88
G7T | 1.77
G7N | 1.85
G7V | 2.2
G7A | 1.83
G7L | 2.12
G7F | 1.45
G7S | 2.08
G7C | 1.79
G7D | 2.46
G7W | 2.83

Variant | protein stability index
G7P | 2.82
G7Q | 1.97
G7K | 2.03
G7E | 2.08
G7R | 1.82
I14N | 1.57
I14Q | 1.79
I14H | 2.05
I14Y | 2.47
I14C | 1.99
I14G | 1.49
I14T | 2.79
I14F | 1.74
I14M | 2.75
I14L | 2.27
I14R | 1.55
I14D | 2.94
I14E | 2.09
I14P | 2.21
I14A | 2.07
I14S | 1.41
I14K | 1.72
I14W | 2.71
I14V | 2.2
V10N | 2.12

Variant | protein stability index
V10A | 1.84
V10G | 1.98
V10Y | 1.99
V10E | 2.52
V10S | 1.29
V10R | 1.58
V10I | 2.95
V10W | 2.75
V10P | 1.61
V10H | 1.82
V10Q | 1.82
V10D | 2.28
V10C | 1.67
V10M | 1.58
V10F | 1.9
V10K | 1.54
V10T | 2.08
V10L | 2.63
P3F | 2.2
P3E | 2.83
P3L | 2.71
P3K | 2.4
P3R | 1.94
P3S | 2.56
P3T | 2.24

Variant | protein stability index
P3A | 2.27
P3Q | 2.5
P3W | 2.43
P3I | 1.97
P3N | 2.24
P3G | 2.5
P3D | 2.63
P3M | 1.6
P3V | 1.59
P3C | 1.72
P3H | 1.85
P3Y | 1.52
I2M | 3.26
I2K | 3.86
I2L | 3.02
I2W | 2.3
I2V | 2.26
I2D | 4.39
I2T | 2.85
I2G | 3.73
I2A | 1.79
I2H | 2.02
I2R | 3.72
I2S | 2.84
I2F | 2.86

Variant | protein stability index
I2Y | 2.96
I2E | 4.16
I2N | 2.83
I2Q | 3.04
I2P | 3.04
I2C | 1.55
K8P | 2.15
K8H | 1.9
K8T | 1.6
K8Y | 2.27
K8V | 2.52
K8R | 2.37
K8G | 1.71
K8E | 2.43
K8S | 1.93
K8N | 2.06
K8M | 1.63
K8D | 2.22
K8L | 2.44
K8I | 1.74
K8C | 2.58
K8Q | 2.1
K8F | 1.32
K8A | 2.13

Variants of: B2
Assay: as above
Conditions: c terminus: native

Variant | protein stability index
L20V | 1.98
L20I | 2.34
L20H | 2.64
L20K | 3.3
L20R | 3.66
L20T | 3.52
L20P | 3.22
L20N | 3.41
L20S | 2.94
L20M | 2.91
L20Q | 3.29
A21M | 1.91
A21S | 2.16
A21Q | 3.17
A21L | 1.33
A21N | 2.55
A21P | 1.99
A21F | 1.77
A21C | 2.57
A21D | 2.73

Variant | protein stability index
A21R | 1.71
A21H | 3.24
A21W | 2.34
A21Y | 2
A21T | 2.71
A21K | 2.5
A21E | 2.25
A21I | 3.52
G22W | 2.17
G22N | 2.67
G22V | 3.23
G22R | 3.52
G22C | 1.07
G22K | 2.7
G22I | 1.91
G22L | 1.81
G22P | 2.47
G22A | 1.5
G22H | 2.48
G22Y | 2.39

Variant | protein stability index
G22Q | 3.22
G22S | 1.8
G22D | 2.64
G22T | 2.27
G22E | 2.54
G22M | 1.6
G22F | 1.8
K23V | 1.49
K23M | 1.01
K23N | 2.85
K23S | 2
K23T | 2.33
K23I | 2.17
K23C | 2.15
K23Q | 2.81
K23H | 1.49
K23D | 2.06
K23P | 2.41
K23L | 1.86
K23R | 1.51
